Measured values as given in paper PMC2266763, “Dimerization of the transmembrane domain of amyloid precursor proteins and familial Alzheimer's disease mutants” (BMC Neuroscience, 2008).

B1: wild-type APP-TM peptide [modified: acceptor version: Glu with the fluorescent group EDANS covalently linked to its sidechain, after the N-terminal Lys-tag (in place of the Trp of the donor version); acceptor version: Glu with … (parent)
chain: GAIIGLMVGGVVIATVIVITLVML
B2: wild-type APP-TM peptide [modified: acceptor version: Glu with the fluorescent group EDANS covalently linked to its sidechain, after the N-terminal Lys-tag (in place of the Trp of the donor version); acceptor version: Glu with … (parent)
chain 1: GAIIGLMVGGVVIATVIVITLVML
chain 2: GAIIGLMVGGVVIATVIVITLVML

Variants of: B1
Test: FRET
Conditions: with itself; 50 µM total peptide concentration; homodimer (solid bar); parent: 0.73; read off a plot

response [A/D ratio] | Variant
0.42 | chain 1 T15I

Variants of: B2
Test: FRET
Conditions: 50 µM total peptide concentration, equimolar wild-type and mutant (open bar), parent: 0.73, read off a plot

response [A/D ratio] | Variant
0.44 | chain 1 T15I
1.6 | chain 1 V18G
0.43 | chain 1 V18F

Same assay, conditions: 20 mM SDS, equimolar Trp-labeled wild-type and Edans-labeled V717G, 50 µM total peptide concentration (highest point of the curve), read off a plot

response [A/D ratio] | Variant
1.6 | chain 1 V18G
